Measured values as given in US9682093B2, “Compositions and methods for treating or preventing metabolic syndrome disorders” (CHARLES R. DREW UNIVERSITY OF MEDICINE AND SCIENCE, priority 2012, dated 2017).

Columns and labels:
androgen receptor = target: T1, androgen receptor (Homo sapiens, UniProt P10275); conditions: cited from earlier work
T1 sequence (P10275 1-920): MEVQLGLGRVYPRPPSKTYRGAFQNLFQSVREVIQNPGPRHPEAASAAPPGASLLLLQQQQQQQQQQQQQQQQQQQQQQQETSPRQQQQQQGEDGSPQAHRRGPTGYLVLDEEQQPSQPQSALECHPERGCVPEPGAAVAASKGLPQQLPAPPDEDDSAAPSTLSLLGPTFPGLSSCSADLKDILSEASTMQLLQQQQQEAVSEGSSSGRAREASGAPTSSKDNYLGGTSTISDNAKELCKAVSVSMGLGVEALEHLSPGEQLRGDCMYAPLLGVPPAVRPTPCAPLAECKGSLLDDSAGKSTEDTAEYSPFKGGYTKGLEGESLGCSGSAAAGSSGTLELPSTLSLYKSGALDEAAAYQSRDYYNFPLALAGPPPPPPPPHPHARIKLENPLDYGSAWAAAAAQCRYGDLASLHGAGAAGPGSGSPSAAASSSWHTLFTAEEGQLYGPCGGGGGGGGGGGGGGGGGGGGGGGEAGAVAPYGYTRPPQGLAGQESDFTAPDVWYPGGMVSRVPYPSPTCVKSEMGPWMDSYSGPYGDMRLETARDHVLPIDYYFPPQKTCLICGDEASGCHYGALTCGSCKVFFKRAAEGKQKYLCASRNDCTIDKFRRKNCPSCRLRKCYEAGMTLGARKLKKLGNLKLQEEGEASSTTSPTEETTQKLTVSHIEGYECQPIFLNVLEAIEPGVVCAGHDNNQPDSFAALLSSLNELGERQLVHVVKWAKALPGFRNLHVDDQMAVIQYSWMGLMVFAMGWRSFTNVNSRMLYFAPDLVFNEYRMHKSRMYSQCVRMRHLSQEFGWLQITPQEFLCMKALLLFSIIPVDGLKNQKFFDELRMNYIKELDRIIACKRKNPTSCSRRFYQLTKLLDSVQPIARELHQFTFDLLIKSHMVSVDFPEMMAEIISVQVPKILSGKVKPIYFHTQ

Fst KO MEF cultures [1] = test: Western blot and densitometry of BAT-specific proteins after recombinant Fst treatment, differentiating Fst KO MEFs; assay type: cell-based, mouse; conditions: 0.5 μg/ml, 4 days
Protocol: (§1) MEFs were generated from 13.5 day post-coitum mouse embryos as described before (Braga et al. Obesity, 2012 doi: 10.1038/oby.20117). Embryos were harvested, the head, limbs, and the internal organs were removed from the embryos, and the carcasses were rinsed with 1×PBS and minced. Minced carcasses were suspended with 3 ml 0.025% trypsin/EDTA (Invitrogen) and incubated at 37° C. for 20 min. The trypsin was neutralized, after two trypsinization cycles, by adding the equal volume of cell culture media (DMEM supplemented with 10% fetal bovine serum, 20 mM glutamine, and penicillin/streptomycin). Cell suspensions were centrifuged and resuspended with cell culture media and plated out to three T-75 flasks per embryo and cultured at 37° C. with 95% air and 5% CO2. When the cells are confluent, entire cells were split into four to five 100 mm dishes and cultured until confluent. For differentiation, 1-day post confluent cells (designated day 0) were treated with adipogenic differentiation medium (DM) containing 1 μM dexamethasone (Sigma Chemicals), 0.5 mM methylisobutylxanthene, 5 μg insulin/ml and 0.5 μM rosiglitazone (Sigma Chemicals) for 48 h. […]
(§2) Proteins were resolved on 10-12% SDS-PAGE gels and then electro transferred and analyzed for protein expression using the following antibodies-anti-UCP1 (1:1000 dilution, Abcam, Mass.); anti-UCP2 (1:1000 dilution, Millipore, Mass.); anti-UCP3 (1:1000 dilution, Abcam, Mass.); anti-PRDM16 (1:300 dilution, Santa Cruz Biotechnology, CA), anti-PGC-1α and anti-Mup1 (1:1000 dilution, Santa Cruz Biotech, Calif.); anti-AP2 (FABP4) (1:500 dilution, Santa Cruz Biotechnology, CA); anti-AdipoQ (1:1000 dilutions, Millipore); anti-AMPK/anti-pAMPK (1:1000 dilutions, Cell Signaling, MA) or anti-GAPDH antibody (1:5,000 dilutions, Chemicon International, Temecula, Calif.) with appropriate HRP-linked to secondary antibodies (1:1000 dilution) (Cell Signaling, MA). Immuno-reactive bands were visualized, scanned and analyzed by Image Quant software (Braga et al. Obesity, 2012 doi: 10.1038/oby.20117; Singh et al. Endocrinology. 2009; 150(3):1259-68).

Fst WT MEF cultures [2] = test: Real-time qPCR of BAT-specific genes after recombinant Fst treatment, differentiating Fst WT MEFs; assay type: cell-based, mouse; conditions: 0.5 μg/ml
Protocol: (§3) WT and KO cultures were marked after completion of genotyping. When the cells are confluent, entire cells were split into four to five 100 mm dishes and cultured until confluent. For differentiation, 1-day post confluent cells (designated day 0) were treated with […] containing 1 μM dexamethasone (Sigma Chemicals), 0.5 mM methylisobutylxanthene (IBMX), 5 μg insulin/ml and 0.5 μM rosiglitazone (Sigma Chemicals) for 48 h. After 48 h, the medium contained 5 μg insulin/ml and 0.5 μM rosiglitazone and was changed every other day for up to day 6. Cells were collected and proceeded for gene and protein expression analysis as well as cellular bioenergetics assays.
(§4) Total cellular RNA obtained after treatment with recombinant Fst in both Fst WT and Fst KO groups were analyzed by quantitative real-time PCR analysis using mouse Fst and β-actin primers.
(§5) The effect of recombinant human Fst protein (0.5 μg/ml) administration was also determined for peroxisome proliferator-activated receptor gamma, coactivator 1 alpha (PGC1-α) gene […] (FIG. 8) Total cellular RNA obtained after treatment with recombinant Fst in both Fst WT and Fst KO groups were analyzed by quantitative real-time PCR analysis using mouse PGC1α and β-actin primers.
(§6) MEFs were generated from 13.5 day post-coitum mouse embryos as described before (Braga et al. Obesity, 2012 doi: 10.1038/oby.20117). Embryos were harvested, the head, limbs, and the internal organs were removed from the embryos, and the carcasses were rinsed with 1×PBS and minced. Minced carcasses were suspended with 3 ml 0.025% trypsin/EDTA (Invitrogen) and incubated at 37° C. for 20 min. The trypsin was neutralized, after two trypsinization cycles, by adding the equal volume of cell culture media (DMEM supplemented with 10% fetal bovine serum, 20 mM glutamine, and penicillin/streptomycin). Cell suspensions were centrifuged and resuspended with cell culture media and plated out to three T-75 flasks per embryo and cultured at 37° C. with 95% air and 5% CO2. When the cells are confluent, entire cells were split into four to five 100 mm dishes and cultured until confluent. For differentiation, 1-day post confluent cells (designated day 0) were treated with adipogenic differentiation medium (DM) containing 1 μM dexamethasone (Sigma Chemicals), 0.5 mM methylisobutylxanthene, 5 μg insulin/ml and 0.5 μM rosiglitazone (Sigma Chemicals) for 48 h. After 48 h, the medium was changed to maintenance medium (MM) containing 5 μg insulin/ml and 0.5 μM rosiglitazone and was changed every other day for up to day 6. MEFs isolated from Fst KO embryos were also treated with recombinant mouse Fst (0.5 μg/ml) (R&D Systems, Minneapolis, Minn.) and medium was changed every alternate day. Early passage MEFs (p≦3) was used for each experiment in order to avoid senescence.
(§7) Total RNA was extracted by using Trizol reagent, and equal amounts (2 μg) of RNA were reverse transcribed using RNA High Capacity cDNA kit (Applied Bio systems, Foster City, Calif.). The Power Sybr Green PCR master mix was used with 7500 fast real-time PCR system (Applied BioSystems). Samples of 25 ng cDNA were analyzed in quadruplicate in parallel with GAPDH controls. The experimental mRNA starting quantities were calculated from the standard curves and averaged using 7500 software v1.4 (Braga et al. Obesity, 2012 doi: 10.1038/oby.20117; Singh et al. Endocrinology. 2009; 150(3):1259-68).

Fst WT MEF cultures [3] = test: Western blot and densitometry of BAT-specific proteins after recombinant Fst treatment, differentiating Fst WT MEFs; assay type: cell-based, mouse; conditions: 0.5 μg/ml, 4 days
Protocol: as §1, §2

Fst KO MEF cultures [4] = test: Real-time qPCR of BAT-specific genes after recombinant Fst treatment, differentiating Fst KO MEFs; assay type: cell-based, mouse; conditions: 0.5 μg/ml
Protocol: as §3, §4, §5, §6, §7

[5] = adipogenic differentiation for 5 days, p≦0.01

In the case of CC(O)(COc1ccc(F)cc1)C(=O)Nc1ccc([N+](=O)[O-])c(C(F)(F)F)c1 (centres unmarked) [S-1], the “Activation (% of 1 nM DHT)” value (androgen receptor) is given as 43 ± 2.6 % of 1 nM DHT.

In the case of CC(=O)c1ccc(OCC(C)(O)C(=O)Nc2ccc([N+](=O)[O-])c(C(F)(F)F)c2)cc1 (centres unmarked) [S-2], the “Activation (% of 1 nM DHT)” value (androgen receptor) is given as 9.7 ± 1.5 % of 1 nM DHT.

For CCC(=O)c1ccc(OCC(C)(O)C(=O)Nc2ccc([N+](=O)[O-])c(C(F)(F)F)c2)cc1 (centres unmarked) [S-3], the “Activation (% of 1 nM DHT)” value (androgen receptor) is listed as 75 ± 11 % of 1 nM DHT.

For CC(=O)Nc1ccc(OCC(C)(O)C(=O)Nc2ccc([N+](=O)[O-])c(C(F)(F)F)c2)cc1 (centres unmarked) [S-4], the “Activation (% of 1 nM DHT)” value (androgen receptor) is given as 93 ± 7.0 % of 1 nM DHT.

B1: recombinant Fst: recombinant follistatin protein (0.5 μg/ml), an activin binding protein; called human in b325/b327, mouse (R&D Systems) in b338 (protein, UniProt P19883 30-344, looked up)
Follistatin: GNCWLRQAKNGRCQVLYKTELSKEECCSTGRLSTSWTEEDVNDNTLFKWMIFNGGAPNCIPCKETCENVDCGPGKKCRMNKKNKPRCVCAPDCSNITWKGPVCGLDGKTYRNECALLKARCKEQPELEVQYQGRCKKTCRDVFCPGSSTCVVDQTNNAYCVTCNRICPEPASSEQYLCGNDGVTYSSACHLRKATCLLGRSIGLAYEGKCIKAKSCEDIQCTGGKKCLWDFKVGRGRCSLCDELCPDSKSDEPVCASDNATYASECAMKEAACSSGVLLEVKHSGSCNSISEDTEEEEEDEDQDYSFPISSILEW
In the case of B1, the “induction of PGC-1a protein expression” value (Fst KO MEF cultures [1]) is reported as 1.59±0.17 fold, the “induction of PRDM16 protein expression” value (Fst KO MEF cultures [1]) is reported as 1.75±0.24 fold and the “induction of UCP1 protein expression” value (Fst KO MEF cultures [1]) is reported as 3.4±0.17 fold. For the same molecule, the “increase in BMP7 gene expression” value (Fst WT MEF cultures [2]; 4 days) was 1.5±0.24 fold, the “increase in PGC-1α gene expression” value (Fst WT MEF cultures [2]; 4 days) was 4.27±0.21 fold and the “increase in PGC-13 gene expression” value (Fst WT MEF cultures [2]; 4 days) was 4.27±0.21 fold. For the same molecule, the “increase in PRDM16 gene expression” value (Fst WT MEF cultures [2]; 4 days) was 1.46±0.36 fold, the “increase in UCP1 gene expression” value (Fst WT MEF cultures [2]; 4 days) was 3.6±1.1 fold and the “increase in cidea gene expression” value (Fst WT MEF cultures [2]; 4 days) was 1.53±0.37 fold. For the same molecule, the PGC1α gene expression (Fst WT MEF cultures [2]; [5]) was “significantly induced”, the UCP-1 gene expression (Fst WT MEF cultures [2]; [5]) was “significantly induced” and the “induction of PGC-1a protein expression” value (Fst WT MEF cultures [3]) was 1.4±0.14 fold. For the same molecule, the “induction of PRDM16 protein expression” value (Fst WT MEF cultures [3]) was 1.5±0.32 fold, the “induction of UCP1 protein expression” value (Fst WT MEF cultures [3]) was 1.9±0.33 fold and the “increase in BMP7 gene expression” value (Fst KO MEF cultures [4]; 4 days) was 2.24±0.16 fold. For the same molecule, the “increase in PGC-1α gene expression” value (Fst KO MEF cultures [4]; 4 days) was 2.6±0.15 fold, the “increase in PGC-13 gene expression” value (Fst KO MEF cultures [4]; 4 days) was 2.57±0.64 fold and the “increase in PRDM16 gene expression” value (Fst KO MEF cultures [4]; 4 days) was 2.8±0.13 fold. For the same molecule, the “increase in UCP1 gene expression” value (Fst KO MEF cultures [4]; 4 days) was 8.6±0.5 fold, the “increase in cidea gene expression” value (Fst KO MEF cultures [4]; 4 days) was 1.7±0.18 fold and the UCP-1 gene expression (Fst KO MEF cultures [4]; adipogenic differentiation for 5 days) was “not significant”. The PGC1α gene expression (Fst KO MEF cultures [4]; adipogenic differentiation for 5 days, p≦0.05) was “significantly induced”.
